By stoichiometry N is commonly meant the number of molecules, sites or subunits per partner or assembly.

The target in assay [1] is Influenza A/Zhejiang/DTID-ZJU01/2013 (H7N9) polymerase heterotrimer (influenza A/Zhejiang/DTID-ZJU01/2013 (H7N9)) (UniProt M9TI86). As to the kind of experiment: SEC-MALS. A general note: SEC sorts molecules by how far they enter the pores of the column.
Assay [2] shares this target. The assay is described as follows: cryo-EM structure.

Turning to “Influenza A/Zhejiang/DTID-ZJU01/2013 (H7N9) polymerase heterotrimer (from UniProt M9TI86;M9TLW3;X5F427) (complex)”, the stoichiometry N in assay [1] and in assay [2] was 2 throughout.

Source of the values: paper doi:10.1101/2022.06.10.495428.
